Experimental data taken from article PMC1919377, “Cation induced differential effect on structural and functional properties of Mycobacterium tuberculosis α-Isopropylmalate synthase” (BMC Structural Biology, 2007).

Target: the molecule itself
Test: cross-linking

B1: isolated TIM barrel domain of Mycobacterium tuberculosis α-isopropylmalate synthase (Arg47 to Phe457) (domain or fragment)
chain: RPFAEEVEPIRLRNRTWPDRVIDRAPLWCAVDLRDGNQALIDPMSPARKRRMFDLLVRMGYKEIEVGFPSASQTDFDFVREIIEQGAIPDDVTIQVLTQCRPELIERTFQACSGAPRAIVHFYNSTSILQRRVVFRANRAEVQAIATDGARKCVEQAAKYPGTQWRFEYSPESYTGTELEYAKQVCDAVGEVIAPTPERPIIFNLPATVEMTTPNVYADSIEWMSRNLANRESVILSLHPHNDRGTAVAAAELGFAAGADRIEGCLFGNGERTGNVCLVTLGLNLFSRGVDPQIDFSNIDEIRRTVEYCNQLPVHERHPYGGDLVYTAFSGSHQDAINKGLDAMKLDADAADCDVDDMLWQVPYLPIDPRDVGRTYEAVIRVNSQSGKGGVAYIMKTDHGLSLPRRLQIEF
notes: also called catalytic TIM barrel domain; Band I; not shown: histidine tag, N-terminal, cleaved
- stoichiometry N: 2
